Results reported in patent publication US6919086B1, “Graminae pollen allergen mutants for specific immunotherapy, and production and use of the same” (Merck Patent Gesellschaft mit, priority 1997, dated 2005).
“Also recorded” adds a separate entry of the source. Like-named read-outs stand apart in the source and are kept apart here.

How the values were obtained:
[1] = test system: basophils from the blood of an allergic patient; assay: Histamine release from basophils; assay type: cell-based, human
Method: Apart from the binding of the allergen to the spec. IgE, the allergen-induced, IgE-mediated release of histamine by allergic effect or cells is of pathophysiological importance for the allergic reaction (side effect). The reactivity of the effector cells (basophils and mast cells) and the epitope specificity of the IgE antibodies which are bound by way of FcεRI are also of importance in this context. For this reason, the modified recombinant allergen variants are tested for their ability to induce histamine release by the degranulation of IgE-loaded basophils which are isolated from the blood of allergic patients.
Before the histamine release test was carried out, the basophilic leucocytes from the EDTA blood of an allergic patient ([…]) were first of all enriched by means of dextran sedimentation and then adjusted to a final concentration of 100,000 basophils/ml. In order to release histamine from the basophils, 200 μl of the cell suspension were in each case incubated, at 37° C. for 40 min, with 50 μl of antigen solution. For this, the rPh1 […] p 5b and the mutants were employed in varying concentrations (of 10^−5-10^−12 M). The histamine which was released was determined in the respective supernatants using the Pharmacia methylhistamine RIA in accordance with the manufacturer's instructions.

[2] = biological target: IgE antibodies of the individual allergic patient serum II/12; assay: EAST inhibition, individual serum II/12
[3] = test system: IgE antibodies of allergic patients; assay: EAST inhibition test (IgE reactivity / allergenicity); assay type: binding, human; settings: for IC50: read-out: Inhibition value 50% (concentration of the inhibitor at 50% inhibition); for Allergenic potency (Prel) 25%: relative to native Phl p 5b at 25% inhibition; for Allergenic potency (Prel) 50%: relative to native Phl p 5b at 50% inhibition
Method: The effects of the induced mutations on the allergenicity, i.e. the ability to bind to the IgE antibodies of allergic patients, of the modified recombinant allergens is determined qualitatively and quantitatively by means of the EAST inhibition test. […] The extent of the immunochemical relatedness (cross reactivity) can also be quantified. This EAST inhibition test only takes the reaction with IgE antibodies into account.
The binding of the allergens by the IgE antibodies is the basic prerequisite for the allergen-specific activation of the effector cells (mast cells, basophils, inter alia) in type I allergy. The allergen-specific inhibition of the enzyme/allergen sorbent test (EAST) is the best means for qualitatively and quantitatively recording the binding of the allergens to IgE anti-bodies. The EAST inhibition test is carried out as follows. Microtitre plates are coated with allergen (natural or recombinant Ph1 p 5 or Ph1 p 5b) (1 μg/ml). After the unbound allergen molecules have been removed by washing, non-specific plastic binding sites are blocked with bovine serum albumin (0.5%). […] from allergic patients, as a representative pool of 10-30 donors or as an individual serum, is incubated, in a suitable dilution, with the allergen-coated microtritre plates. The bound allergen-specific IgE antibodies are quantified using enzyme-coupled anti-IgE antibodies (e.g. alk. phosphatase-a-IgE antibodies). This binding is inhibited by soluble allergen or the substance to be tested (allergen mutants) in dependence on the concentration. The inhibition curve obtained with the purified natural allergen Ph1 p 5b is used as the reference.

[4] = biological target: specific IgE on basophils from the blood of allergic patient; assay: cell-based or functional assay
[5] = allergic patient serum pool Bor 18/100
[6] = allergic patient serum pool We 6/97
[7] = individual allergic patient serum II/3
[8] = individual allergic patient serum II/12
[9] = individual allergic patient serum II/17

B1: rPhl p 5b deletion mutant DM3 (deletion A154-T177, A220T) (protein)
chain: ADAGYAPATPAAAGAAAGKATTEEQKLIEDINVGFKAAVAAAASVPAADKFKTFEAAFTSSSKAAAAKAPGLVPKLDAAYSVAYKAAVGATPEAKFDSFVASLTEALRVIAGALEVHAVKPVTEEPGMAKIPAGELQIIDKIDAAFKVAATAAGGAYDTYKCIPSLEAAVKQAYAATVAAAPQVKYAVFEAALTKTITAMSEVQKVSQPATGAATVAAGAATTAAGAASGAATVAAGGYKV
- Concentration required to bring about a 30% histamine release, fold higher than wild type rPhl p 5b [1]: 3 fold
- IC50 [2]: 100 µM
- allergenic potency (Prel) at 25% inhibition (relative to native Phl p 5b) [2]: 0.012
- allergenic potency (Prel) at 50% inhibition (relative to native Phl p 5b) [2]: 5.7e-05
- inhibition value (inhibitor concentration at 25% inhibition) [2]: 4.5e-09 mol/L
- Allergenicity / IgE reactivity, overall assessment (in words) ([3]; all serum pools and individual sera, Prel values): marked reduction in allergenicity; also recorded: greatly reduced, it is still detectable
- Inhibition value 25% (concentration of the inhibitor at 25% inhibition) [3, 5]: 1.2e-09 mol/L
- IC50 [3, 5]: 4.1 µM
- Inhibition value 25% (concentration of the inhibitor at 25% inhibition) [3, 6]: 5.1e-09 mol/L
- IC50 [3, 6]: 0.029 µM
- Inhibition value 25% (concentration of the inhibitor at 25% inhibition) [3, 7]: 1.1e-06 mol/L
- IC50 [3, 7]: 32000 µM
- Inhibition value 25% (concentration of the inhibitor at 25% inhibition) [3, 8]: 4.5e-09 mol/L
- IC50 [3, 8]: 100 µM
- Inhibition value 25% (concentration of the inhibitor at 25% inhibition) [3, 9]: 5.6e-09 mol/L
- IC50 [3, 9]: 0.05 µM
- Allergenic potency (Prel) 25% ([3]; individual serum II/3): 0.0004
- Allergenic potency (Prel) 25% ([3]; individual serum II/12): 0.012
- Allergenic potency (Prel) 25% ([3]; individual serum II/17): 0.038
- Allergenic potency (Prel) 25% ([3]; serum pool Bor 18/100): 0.028
- Allergenic potency (Prel) 25% ([3]; serum pool We 6/97): 0.099
- Allergenic potency (Prel) 50% ([3]; individual serum II/3): 1.8 × 10^−7
- Allergenic potency (Prel) 50% ([3]; individual serum II/12): 5.7 × 10^−5
- Allergenic potency (Prel) 50% ([3]; individual serum II/17): 0.0005
- Allergenic potency (Prel) 50% ([3]; serum pool Bor 18/100): 0.0001
- Allergenic potency (Prel) 50% ([3]; serum pool We 6/97): 0.0020
- EAST inhibition curve / inhibitory effect (in words) ([3]; serum pool Bor 18/100 (20 donors), FIG. 1): markedly decreased inhibitory effect
- Allergenicity from EAST inhibition curves (in words) ([3]; serum pool We 6/97 and individual sera II3, II12, II17, FIGS. 2-5): greatly reduced allergenicity
- concentration required to bring about a 30% histamine release from basophils, against wild type rPh1 p 5b [4]: 3 fold higher
